Data as given in patent publication US20250381289A1 (Genmab, published 2025).

Assays:
[1] = target: T1, Human EGFR (human, UniProt P00533); assay: ELISA, coated human EGFR, anti-human Fc-HRP
T1 construct: recombinant protein; also called human EGFR recombinant protein

[2] = target: T2, Human cMET (human); assay: ELISA, coated human cMET, anti-human Fc-HRP
T2 construct: recombinant protein; also called human cMET recombinant protein

[3] = target: T3, EGFR on EGFR and cMET co-expressed tumor cell lines (UniProt P00533 25-1210, limits assumed); assay: flow cytometry, A549 cells (co-express EGFR and cMET; both arms contribute)
T3 construct: whole, on cells

[4] = target: T4, cMET on EGFR and cMET co-expressed tumor cell lines (UniProt P08581 25-1390, limits assumed); assay: as above
T4 construct: whole, on cells

[5] = target: T3, EGFR on EGFR and cMET co-expressed …; assay: flow cytometry, EBC-1 cells (co-express EGFR and cMET; both arms contribute)
[6] = target: T4, cMET on EGFR and cMET co-expressed …; assay: as above
Target sequence in this assay (P08581 25-1390 limits assumed): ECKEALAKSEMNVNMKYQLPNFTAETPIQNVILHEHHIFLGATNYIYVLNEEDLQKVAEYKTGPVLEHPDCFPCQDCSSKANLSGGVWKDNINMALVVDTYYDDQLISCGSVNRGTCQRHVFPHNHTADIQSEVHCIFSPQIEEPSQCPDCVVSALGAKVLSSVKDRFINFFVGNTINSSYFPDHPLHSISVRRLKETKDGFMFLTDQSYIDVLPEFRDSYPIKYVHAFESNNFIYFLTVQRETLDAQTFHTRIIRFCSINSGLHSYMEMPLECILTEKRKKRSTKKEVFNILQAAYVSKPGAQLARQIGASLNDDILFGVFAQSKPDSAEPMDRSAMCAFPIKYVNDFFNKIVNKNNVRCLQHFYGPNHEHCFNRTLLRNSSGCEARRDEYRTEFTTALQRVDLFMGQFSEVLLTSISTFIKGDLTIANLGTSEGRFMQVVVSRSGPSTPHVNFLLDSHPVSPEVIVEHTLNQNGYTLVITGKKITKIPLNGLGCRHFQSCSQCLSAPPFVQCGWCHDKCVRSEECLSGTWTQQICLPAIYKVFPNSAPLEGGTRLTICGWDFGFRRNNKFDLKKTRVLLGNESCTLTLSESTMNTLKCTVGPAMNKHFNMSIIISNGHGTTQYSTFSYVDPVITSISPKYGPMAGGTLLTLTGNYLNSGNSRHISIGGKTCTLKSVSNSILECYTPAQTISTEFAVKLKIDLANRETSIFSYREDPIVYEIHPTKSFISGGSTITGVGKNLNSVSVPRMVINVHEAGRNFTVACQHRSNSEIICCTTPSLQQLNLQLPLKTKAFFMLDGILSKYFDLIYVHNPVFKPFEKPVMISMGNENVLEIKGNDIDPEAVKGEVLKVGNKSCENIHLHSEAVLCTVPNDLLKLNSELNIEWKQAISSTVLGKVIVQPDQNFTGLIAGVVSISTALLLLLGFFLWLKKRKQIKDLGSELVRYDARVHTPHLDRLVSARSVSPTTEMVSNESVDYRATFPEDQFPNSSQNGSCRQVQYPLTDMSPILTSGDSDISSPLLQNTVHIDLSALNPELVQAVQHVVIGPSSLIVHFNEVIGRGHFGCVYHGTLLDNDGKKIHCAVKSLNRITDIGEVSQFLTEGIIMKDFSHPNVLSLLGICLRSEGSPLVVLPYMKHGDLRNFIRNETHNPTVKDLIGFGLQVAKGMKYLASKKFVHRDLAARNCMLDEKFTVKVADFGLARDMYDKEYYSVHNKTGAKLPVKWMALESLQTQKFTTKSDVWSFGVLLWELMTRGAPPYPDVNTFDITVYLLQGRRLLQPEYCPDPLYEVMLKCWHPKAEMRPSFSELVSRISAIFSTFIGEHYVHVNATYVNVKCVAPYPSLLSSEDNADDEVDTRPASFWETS

[7] = target: T3, EGFR on EGFR and cMET co-expressed …; assay: flow cytometry, A431 cells (co-express EGFR and cMET; both arms contribute)
[8] = target: T4, cMET on EGFR and cMET co-expressed …; assay: as above
Target sequence in this assay (P08581 25-1390 limits assumed): as above

[9] = target: T3, EGFR on EGFR and cMET co-expressed …; assay: flow cytometry, MKN-45 cells (co-express EGFR and cMET; both arms contribute)
[10] = target: T4, cMET on EGFR and cMET co-expressed …; assay: as above
Target sequence in this assay (P08581 25-1390 limits assumed): as above

[11] = target: T3, EGFR on EGFR and cMET co-expressed …; assay: flow cytometry, EBC-1 cells (co-express EGFR and cMET; both arms contribute); remark: listed apart in the source
[12] = target: T4, cMET on EGFR and cMET co-expressed …; assay: as above; remark: listed apart in the source
[13] = target: T3, EGFR on EGFR and cMET co-expressed …; assay: flow cytometry, SW620 cells (named among the EGFR and cMET co-expressing lines; both arms contribute)
[14] = target: T4, cMET on EGFR and cMET co-expressed …; assay: as above
[15] = target: T5, human cMET-Fc (human, UniProt P08581 25-932); assay: blocking ELISA: coated human cMET-Fc, antibody titrated, then human HGF-His (blocked ligand), anti-His-HRP
T5 construct: not shown: Fc part, not described

[16] = target: T3, EGFR on EGFR and cMET co-expressed …; assay: flow cytometry on EBC-1 cells (co-express EGFR and cMET), PE anti-human Fc; signal of the whole bispecific, not resolved by arm
[17] = target: T4, cMET on EGFR and cMET co-expressed …; assay: as above
[18] = target: T3, EGFR on EGFR and cMET co-expressed …; assay: flow cytometry on CAL-27 cells (co-express EGFR and cMET), PE anti-human Fc; signal of the whole bispecific, not resolved by arm
[19] = target: T4, cMET on EGFR and cMET co-expressed …; assay: as above

T2 sequence (P08581 whole entry): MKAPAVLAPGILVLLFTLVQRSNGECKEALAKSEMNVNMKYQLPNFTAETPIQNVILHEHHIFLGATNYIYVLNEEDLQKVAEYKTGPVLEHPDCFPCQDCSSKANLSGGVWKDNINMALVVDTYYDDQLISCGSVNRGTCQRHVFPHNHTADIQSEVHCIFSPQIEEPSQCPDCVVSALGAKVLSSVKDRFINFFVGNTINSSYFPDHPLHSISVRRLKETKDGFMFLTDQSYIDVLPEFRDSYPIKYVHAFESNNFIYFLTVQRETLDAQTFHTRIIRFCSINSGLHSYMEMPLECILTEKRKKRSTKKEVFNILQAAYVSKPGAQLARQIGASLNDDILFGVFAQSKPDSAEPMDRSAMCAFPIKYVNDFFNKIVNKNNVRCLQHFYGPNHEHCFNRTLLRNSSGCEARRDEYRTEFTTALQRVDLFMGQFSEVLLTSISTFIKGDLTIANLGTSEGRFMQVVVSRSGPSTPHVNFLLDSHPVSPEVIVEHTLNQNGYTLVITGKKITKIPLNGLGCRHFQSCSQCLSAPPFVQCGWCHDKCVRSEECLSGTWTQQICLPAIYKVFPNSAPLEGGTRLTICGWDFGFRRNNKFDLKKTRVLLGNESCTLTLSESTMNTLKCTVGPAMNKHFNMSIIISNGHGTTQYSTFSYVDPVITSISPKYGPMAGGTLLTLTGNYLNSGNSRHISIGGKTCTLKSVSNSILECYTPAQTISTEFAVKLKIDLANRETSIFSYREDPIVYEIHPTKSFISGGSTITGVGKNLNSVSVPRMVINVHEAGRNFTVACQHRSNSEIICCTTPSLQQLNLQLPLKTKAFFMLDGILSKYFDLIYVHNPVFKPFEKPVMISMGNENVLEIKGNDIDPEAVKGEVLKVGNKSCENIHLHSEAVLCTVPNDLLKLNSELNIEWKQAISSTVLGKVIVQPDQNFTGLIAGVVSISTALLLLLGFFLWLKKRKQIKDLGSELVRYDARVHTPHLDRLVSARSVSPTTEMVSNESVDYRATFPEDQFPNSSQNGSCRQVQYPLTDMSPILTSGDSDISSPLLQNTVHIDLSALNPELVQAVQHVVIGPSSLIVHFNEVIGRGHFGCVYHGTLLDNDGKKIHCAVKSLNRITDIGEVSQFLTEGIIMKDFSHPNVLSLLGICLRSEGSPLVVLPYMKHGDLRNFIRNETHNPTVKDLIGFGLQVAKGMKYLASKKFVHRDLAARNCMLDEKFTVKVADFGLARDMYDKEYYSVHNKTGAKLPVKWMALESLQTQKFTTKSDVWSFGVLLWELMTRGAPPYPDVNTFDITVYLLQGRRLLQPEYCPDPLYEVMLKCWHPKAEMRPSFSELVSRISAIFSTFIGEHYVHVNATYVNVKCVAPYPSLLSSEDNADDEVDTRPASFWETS

EC50 (read off the curve) [1]: ~0.6 nM | EC50 (read off the curve) [2]: ~1 nM | EC50 (read off the curve) [3]: ~1 nM | EC50 (read off the curve) [4]: ~1 nM | EC50 (read off the curve) [5]: ~1 nM | EC50 (read off the curve) [6]: ~1 nM | EC50 (read off the curve) [7]: ~4 nM | EC50 (read off the curve) [8]: ~4 nM | EC50 (read off the curve) [9]: ~2 nM | EC50 (read off the curve) [10]: ~2 nM | EC50 (read off the curve) [11]: ~1 nM | EC50 (read off the curve) [12]: ~1 nM | EC50 (read off the curve) [13]: ~0.2 nM | EC50 (read off the curve) [14]: ~0.2 nM | IC50 (read off the curve) [15]: ~0.8 nM | EC50 (read off the curve) [16]: ~2 nM | EC50 (read off the curve) [17]: ~2 nM | EC50 (read off the curve) [18]: ~3 nM | EC50 (read off the curve) [19]: ~3 nM
B1: Amivantamab (bispecific antibody, human IgG1, kappa)
heavy 1: not shown
light 1: not shown
heavy 2: not shown
light 2: DIQMTQSPSSVSASVGDRVTITCRASQGISNWLAWFQHKPGKAPKLLIYAASSLLSGVPSRFSGSGSGTDFTLTISSLQPEDFATYYCQQANSFPITFGQGTRLEIKRTVAAPSVFIFPPSDEQLKSGTASVVCLLNNFYPREAKVQWKVDNALQSGNSQESVTEQDSKDSTYSLSSTLTLSKADYEKHKVYACEVTHQGLSSPVTKSFNRGEC
notes: Bispecific positive control
